Assay in data set [1]: not given
The source holds these as a separate data set.

Assay in data set [2]: not given
The source holds these as a separate data set.

Assay in data set [3]: not given
The source holds these as a separate data set.

The test system of the next data set is orthotopic PDX GBM. Format: in vivo, nude mice. Conditions: IRDye800CW-AE344 6 nmol i.v. 3 h before surgery; 5-ALA 0.25 mg/g oral 4-5 h before; NIR surgery followed 5-ALA surgery; 2 animals each.
The next data set deals with glioma. Conditions: cited from earlier work. The source says: Gliolan®, the brand name of 5-ALA, was approved for clinical use for GBM resection in Europe in 2007 and by the FDA in 2017. After oral administration, it is metabolized inside the tumor cells into protoporphyrin IX that is fluorescent with an emission peak at 635 nm. […] Further, the frequency of the most common early severe adverse events (hemiparesis, aphasia, convulsions, and epidural hematoma) was 11 of 139 pati ... || GBM as a high-grade glioma is characterized by alterations of the normal brain vasculature resulting in a disrupted leaky BBB [47] manifested on MRI with tumor contrast-enhancement. However, the highly invasive nature of GBM causes single cell invasion into otherwise healthy tissue and proliferation of cells in areas outside of the disrupted BBB region, usually in areas not showing contrast-enhancement on MRI [48]. In contrast, the vasculature and BBB function in low-grade gliomas remains virtually unaltered and intact with normal function. As a consequence, the BBB in both high-grade and ...

Data set [4] in a line: Ex vivo plasma stability, murine plasma. It counts as in vitro ADME. Conditions: mouse, 37 °C in dark, 2.4 nmol in 1,600 ul plasma, acetonitrile precipitation, HPLC fluorescence detection ex 774/em 798 nm, normalized to 0 h, read-out: intact probe (normalized AUC on HPLC). As for the experimental part: (§1) For plasma stability 1,600 ul human and murine plasma were separately incubated with 2.4 nmol IRDye800CW-AE344 in 10 ul PBS at 37 °C in dark. 200 ul samples were collected at 0, 0.5, 1, 2, 3, 6, 12 and 24 h. Plasma proteins were precipitated by addition of 200 ul acetonitrile and the samples were centrifuged at 10,000 G for 10 min. The supernatant was collected for analysis. The supernatant from time zero from both the human and mouse serum was analyzed to establish the retention time of the intact IRDye800CW-AE344 on HPLC-MS on a RSLC Dionex Ultimate 3000 (Thermo) instrument coupled to a Bruker QTOF Impact HD II. The column was an Aeris widepore 3.6 µm C4 column (150 × 4.6 mm, Phenomenex) and the solvent system was solvent A: water containing 0.1% Formic acid; solvent B: acetonitrile containing 0.1% formic acid. Method: 0-1 min 5% solvent B, 1-18min 5%-50% solvent B with a flowrate of 1 mL/min. […] All samples were then run using the settings above and the AUC at the 14 min peak was used to calculate the degradation with 0 h for both murine and human plasma as the reference.

Data set [5] can be described thus: Ex vivo plasma stability, human plasma. It counts as in vitro ADME. Conditions: 37 °C in dark, 2.4 nmol in 1,600 ul plasma, acetonitrile precipitation, HPLC fluorescence detection ex 774/em 798 nm, normalized to 0 h, read-out: intact probe (normalized AUC on HPLC). As for the experimental part: as §1
A short description of data set [6]: Biodistribution by organ fluorescence imaging. Format: in vivo, nude mice. Conditions: 3 nmol, 1 h post injection. The procedure:
Biodistribution was assessed in animals (n=2) receiving 3 nmol IRDye800CW-AE344 and was euthanized after 1 h for organ dissection and imaging (exposure time: 333 ms). Due to renal excretion, the fluorescence signals in the kidneys were out of scale compared to all the other organs.

The subject of another data set is liver and kidneys. The data set is described as follows: Acute toxicity, liver and kidney histology. It counts as in vivo, nude mice. Conditions: 24 h post injection of 12 nmol, 5 animals. As for the experimental part: Acute toxicity was evaluated on the liver and kidneys from 5 animals 24 h post injection of 12 nmol IRDye800CW-AE344.
Liver and kidney tissue was formalin fixed and paraffin embedded. Sections of 2-4 um thick were cut and a routine staining panel applied including: H&E, modified sirius, PAS and Masson trichome for both and additional PAS with silver for kidneys and PAS with diastase, iron, reticulin artisan and oxidized orcein for the livers. Livers were immunohistochemically stained, immunohistochemical evaluation on 3 µm thick sections was done using the CK7 antibody from Dako/Agilent, GA619 (clone OV-TL12/30) following the manufacturer's instructions. The staining took place on the Omnis from Agilent utilizing the EnVision Flex+ detection kit (GV800). The primary antibody was diluted using Antibody Diluent (Dako DM830) and were incubated for 20 min. The sections were counterstained with hematoxylin.

The subject of data set [7] is 3D blood-brain barrier (BBB) spheroids. The data set is described as follows: Uptake into 3D blood-brain barrier spheroids. Format: in vitro ADME, human. Conditions: 25 µM, overnight incubation 37 °C/5% CO2, confocal, slice 97 µm inside spheroid, three independent experiments; p = 0.0229.
Procedure: All cell lines were incubated at 37 °C/5% CO2.
Blood-brain-barrier spheroid assembly and uptake assays: Blood-brain barrier (BBB) spheroids were assembled as previously described [54]. Briefly, 50 µL of 1% agarose (w/v) in Milli-Q water is added to each well of low-binding 96 well plates (Thermo Fisher Scientific) and allowed to cool prior to the addition of cells. Confluent astrocytes, pericytes and hCMEC/D3 were lifted with 0.025% trypsin and resuspended in BBB-working media (Vasculife-Mv with VEGF omitted and 2% normal human serum). 1x10^3 of each cell type is added sequentially to give a total volume of 100 µL per well. BBB-working media was added to each well to a final volume of 200 µL per well. Astrocytes were used between passage 2 and 4, pericytes between passage 4 and 6, and hCMEC/D3 between passages 29 and 30. […]
The following day, spheroids (10 per treatment condition) were pooled by group into low-binding Eppendorf tubes (1.5 mL, Thermo Fisher Scientific) using 0.1% Triton X-100 treated pipette tips and washed 3 times with sterile PBS. […] The extent of uptake into the spheroids was determined by capturing Z-stacks of each spheroid and measuring the integrated density of a region of interest 50µm from the outer boundary of the spheroid using a slice that corresponds to 97µm inside the spheroid [54]. […]
The test system of the next data set is uPAR-expressing tumors. Conditions: cited from earlier work; for time of maximal TBR: previous probes. As for the experimental part: Compared to our previous probes, ICG-2Glu-AE105 and CH1055-4Glu-AE105, we improved several features. Importantly, the route of excretion changed from liver to kidneys leading to improved pharmacokinetics with faster excretion. Maximal TBR decreased from 15 h and 96 h of ICG-Glu-Glu-AE105 and CH1055-4Glu-AE105, respectively to 3 h with the current new probe.

The target of data set [8] is T1, urokinase-type Plasminogen Activator Receptor (uPAR) (UniProt Q03405 23-305). In words: SPR; competition in solution, Biacore 3000: pro-uPA S356A immobilised on a CM5 chip (>5000 RU, mass transport limited); 2 nM uPAR incubated with a 3-fold dilution series of peptide (0.076 nM to 1.5 uM), 300 sec, 20 °C, 50 uL/min; 10 mM HEPES, 150 mM NaCl, 3 mM EDTA, 0.05% P20, pH 7.4. Conditions: both partners purified.
T1 sequence (Q03405 23-305): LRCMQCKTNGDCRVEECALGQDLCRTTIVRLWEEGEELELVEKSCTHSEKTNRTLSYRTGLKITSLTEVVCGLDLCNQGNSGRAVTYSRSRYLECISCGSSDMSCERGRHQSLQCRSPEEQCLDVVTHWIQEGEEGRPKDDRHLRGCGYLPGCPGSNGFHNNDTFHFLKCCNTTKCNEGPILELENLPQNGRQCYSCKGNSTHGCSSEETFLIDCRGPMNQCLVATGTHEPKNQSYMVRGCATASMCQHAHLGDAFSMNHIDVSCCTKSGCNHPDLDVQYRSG

Data set [9] addresses T1, urokinase-type Plasminogen Activator …. The data set is described as follows: cell-based or functional assay.

Non-standard residues stand in square brackets, D forms with d. Primed or numbered codes have the meaning given here. Cha = N[C@@H](CC1CCCCC1)C(=O)O; IRDye800CW′ = not defined here; AEEA = NCCOCCOCC(=O)O

Take `CC(C)C[C@H](NC(=O)[C@H](Cc1ccc(O)cc1)NC(=O)[C@@H](CCCNC(=N)N)NC(=O)[C@@H](CO)NC(=O)[C@H](Cc1ccccc1)NC(=O)[C@H](CC1CCCCC1)NC(=O)[C@H](CC(=O)O)NC(=O)COCCOCCNC(=O)COCCOCCNC(=O)[C@H](CCC(=O)O)NC(=O)[C@H](CCC(=O)O)NC(=O)CCCCC[N+]1=C(/C=C/C2=C(Oc3ccc(S(=O)(=O)O)cc3)C(=C/C=C3/N(CCCCS(=O)(=O)[O-])c4ccc(S(=O)(=O)O)cc4C3(C)C)/CCC2)C(C)(C)c2cc(S(=O)(=O)O)ccc21)C(=O)N[C@@H](Cc1c[nH]c2ccccc12)C(=O)N[C@@H](CO)C(=O)O`: the Stokes shift is 10 nm. Moreover, the emission peak λemis,max in data set [1] was 794 nm. Further, in data set [2], the excitation peak λexcit,max was 784 nm. The same molecule gave an absorption maximum λabs,max in data set [3] of 777 nm.

As for `NCC(=O)CCC(=O)O` [5-ALA], in the data set with orthotopic PDX GBM, the “postoperative residual tumor on histology after guided surgery” value was “clearly showed residual tumor”. Besides, the “low-grade gliomas showing visible fluorescence” value with glioma is “approximately 20%”. For the same molecule, in the data set on glioma (hemiparesis, aphasia, convulsions, epidural hematoma, WL group 4 of 131), the “frequency of the most common early severe adverse events” value is 11 of 139. Also, in the data set on glioma (phase III clinical trial, 5-ALA vs WL surgery (36% with WL)), the “rate of complete resection of the tumor” value is 65%.

On to `CC(C)C[C@H](NC(=O)[C@H](Cc1ccc(O)cc1)NC(=O)[C@@H](CCCNC(=N)N)NC(=O)[C@@H](CO)NC(=O)[C@H](Cc1ccccc1)NC(=O)[C@H](CC1CCCCC1)NC(=O)[C@H](CC(=O)O)NC(=O)COCCOCCNC(=O)COCCOCCNC(=O)[C@H](CCC(=O)O)NC(=O)[C@H](CCC(=O)O)NC(=O)CCCCC[N+]1=C(/C=C/C2=C(Oc3ccc(S(=O)(=O)O)cc3)C(=C/C=C3/N(CCCCS(=O)(=O)O)c4ccc(S(=O)(=O)O)cc4C3(C)C)/CCC2)C(C)(C)c2cc(S(=O)(=O)[O-])ccc21)C(=O)N[C@@H](Cc1c[nH]c2ccccc12)C(=O)N[C@@H](CO)C(=O)O` [IRDye800CW-AE344], for which the remaining at 6 h, 1.5 µM in data set [4] (6 h) was found to be 73%. For the same molecule, in data set [4] (12 h), the remaining at 12 h, 1.5 µM is 67%. Also, the remaining at 6 h in data set [5] came out at 61%. In addition, in data set [6] (n=2, exposure time 333 ms), the MFI in liver was 88 a.u, the MFI in lungs is reported as 101 a.u, the “MFI in normal brain tissue” value came out at 19 a.u and the MFI in skin is on record as 99 a.u. In addition, the MFI in kidneys in data set [6] (n=2, acquired at 40 ms and extrapolated to 333 ms) is given as 1,236 a.u. Further, in the data set on liver and kidneys, the kidney histology entry was “normal with preserved glomeruli and tubules without atrophy, inflammation, or fibrosis”; the liver histology entry is listed as “normal with lobular configuration without inflammation, fibrosis, cholestasis or deposits”. For the same molecule, the “fold change in relative fluorescence units (RFU) compared to untreated spheroids” value in data set [7] is 5.3 fold.

For “CH1055-Glu-Glu-Glu-Glu-AE105 [CH1055-4Glu-AE105, previous uPAR probe with NIR-II fluorophore CH1055]”, in the data set with uPAR-expressing tumors, the “TBR of previous probes” value is given as 2.7 and the “time of maximal TBR” value is 96 h.

For the molecule “ICG-Glu-Glu-AE105 [previous fluorescently labeled uPAR probe with ICG]”, in the data set with uPAR-expressing tumors, the “TBR of previous probes” value is reported as 3.5 and the “time of maximal TBR” value is 15 h.

B1: AE105 (peptide)
chain: DAFSRYLWS
modifications: 9-mer; residue 2 Cha (cyclohexylalanine), residue 4 D-Ser, residue 5 D-Arg; C-terminal free acid. Sequence not printed: taken from the core of the related antagonist peptide AE147 in 1YWH, with D-Arg
As a reminder, the IC50 is the midpoint of a concentration-inhibition curve. In turn, B1 yielded an IC50 in data set [8] of 7.8 nM.

{IRDye800CW′}-EE[AEEA][AEEA]D[Cha]F[dS][dR]YLWS-OH (also: X3-X4: OEG2 linker between Glu-Glu and AE105) [IRDye800CW-AE344]: in [9], the “normalized tumor-to-background ratio (TBR), NIR imaging of cross sectioned brains with orthotopic GBM in mice, 3 nmol IRDye800CW-AE344 (active), 1 h” value turned out to be 6.6 and the “normalized tumor-to-background ratio (TBR), NIR imaging of orthotopic GBM in mice, 3 nmol IRDye800CW-AE344 blocked by co-administered AE120 (the dimer version of the AE105), 1 h” value came out at 4.6. In addition, the IC50 in data set [8] was 20 nM.

These data come from paper PMC8210614, “IRDye800CW labeled uPAR-targeting peptide for fluorescence-guided glioblastoma surgery: Preclinical studies in orthotopic xenografts” (Theranostics, 2021).
